Tests used:
[1] = biological target: T1, human FcγRIIA 131H on blood cells of 131H/H donors (human, UniProt P12318 34-317); test: cell-based or functional assay
T1 sequence (looked up): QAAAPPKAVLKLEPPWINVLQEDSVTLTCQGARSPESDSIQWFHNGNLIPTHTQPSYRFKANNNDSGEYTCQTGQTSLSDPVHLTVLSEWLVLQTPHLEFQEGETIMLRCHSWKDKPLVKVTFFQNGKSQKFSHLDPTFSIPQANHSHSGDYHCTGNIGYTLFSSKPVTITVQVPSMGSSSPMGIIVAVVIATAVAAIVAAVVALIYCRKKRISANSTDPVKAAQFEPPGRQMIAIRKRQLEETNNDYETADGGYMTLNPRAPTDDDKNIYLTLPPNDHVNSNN

[2] = biological target: T2, human FcγRIIA 131R on blood cells of 131R/R donors (human, UniProt P12318 34-317); test: cell-based or functional assay
T2 sequence: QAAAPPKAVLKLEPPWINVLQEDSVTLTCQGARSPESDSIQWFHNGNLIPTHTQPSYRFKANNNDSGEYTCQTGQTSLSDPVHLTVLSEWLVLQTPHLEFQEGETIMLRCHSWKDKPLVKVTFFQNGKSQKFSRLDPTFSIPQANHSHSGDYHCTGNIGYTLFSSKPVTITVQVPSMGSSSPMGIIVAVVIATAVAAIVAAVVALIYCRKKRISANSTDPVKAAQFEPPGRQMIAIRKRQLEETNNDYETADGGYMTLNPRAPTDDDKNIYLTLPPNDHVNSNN

[3] = biological target: cynomolgus monkey FcγRIIA on blood cells (cynomolgus monkey); test: cell-based or functional assay
[4] = biological target: T3, recombinant FcγRIIB (ELISA coat, generated at MedImmune) (UniProt P31994 43-217, limits assumed); test: ELISA on plate-coated FcγRIIB (2 µg/ml), detection with goat anti-human Fc-HRP
T3 construct: also called CD32B
T3 sequence (looked up): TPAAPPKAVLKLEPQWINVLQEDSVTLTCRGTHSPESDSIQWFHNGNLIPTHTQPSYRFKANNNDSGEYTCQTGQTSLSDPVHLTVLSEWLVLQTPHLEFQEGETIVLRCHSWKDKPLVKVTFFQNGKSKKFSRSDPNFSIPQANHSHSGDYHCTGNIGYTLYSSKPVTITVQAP
Protocol: Plates were washed five times with 200 μl of wash buffer (PBS containing 0.1% Tween 20), blocked with blocking buffer containing 5% milk in PBS for 1 hour at room temperature, and washed five additional times with wash buffer. Three-fold serial dilutions of the test antibody or control antibody (R347-Tm) were added to wells in duplicate. Plates were incubated for 2 hours at room temperature, and washed five times with wash buffer. Binding of the antibodies to the FcγRs was detected by adding 50 μl of goat anti-human Fc-HRP (Jackson ImmunoResearch Laboratories, PA) to the wells and incubating for 1 hour at room temperature, washing 10 times, and adding 50 μl TMB substrate (Pierce Biotechnology, MA). The color reaction was stopped with 50 μl 0.2M […] and the absorbance was measured using a spectrophotometer (Molecular Devices, CA) at […].

[5] = biological target: T4, human FcγRIIA on primary human cells (neutrophils; sorted CD14+ monocytes), allotype not stated (human, UniProt P12318 34-317); test: flow cytometry, fluorescently labelled antibody on human neutrophils, in the presence of 10 mg/mL IVIG as competitor
T4 construct: whole, on cells; also called human FcγRIIA at the neutrophil surface; FcγRIIA-expressing neutrophils
T4 sequence (looked up): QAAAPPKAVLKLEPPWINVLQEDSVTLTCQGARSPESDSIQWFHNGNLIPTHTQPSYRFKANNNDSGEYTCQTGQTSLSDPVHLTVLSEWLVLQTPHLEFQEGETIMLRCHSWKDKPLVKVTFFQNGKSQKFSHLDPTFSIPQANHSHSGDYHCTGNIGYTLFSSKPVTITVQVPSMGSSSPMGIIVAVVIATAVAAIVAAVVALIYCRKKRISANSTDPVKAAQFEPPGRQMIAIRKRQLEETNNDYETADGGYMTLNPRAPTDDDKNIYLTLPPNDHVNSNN
Protocol: Human neutrophils were re-suspended in blocking buffer [phosphate-buffered saline (PBS) supplemented with 10% fetal bovine serum] and transferred to round-bottom 96-well culture plates (0.5×10^6 cells/well). […] After incubation, cells were washed with cold PBS and the mean fluorescence intensity (MFI) of cell-bound antibodies was assessed by flow cytometry using an LSRII (BD; Franklin Lakes, NJ). The EC₅₀ for binding was calculated using a non-linear fit equation in GraphPad Prism 6 software.

[6] = biological target: T5, Human CD32A 131R extracellular domain, 6xHis_Flag tagged (human, UniProt P12318 34-217); test: Biacore; IgG1-TM captured on a Protein G chip, CD32A as analyte, 1:1 Langmuir fit, average of two experiments
T5 construct: also called Hu CD32A_131Arg; human CD32A_131 Arg
T5 chain: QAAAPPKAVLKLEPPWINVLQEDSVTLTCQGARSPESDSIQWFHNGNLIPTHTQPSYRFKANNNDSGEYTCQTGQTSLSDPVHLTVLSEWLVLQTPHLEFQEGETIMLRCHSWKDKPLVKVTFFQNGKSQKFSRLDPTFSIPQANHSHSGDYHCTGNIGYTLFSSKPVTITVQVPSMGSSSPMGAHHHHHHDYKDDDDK

- IC50 of the loss of surface FcγRIIA (M.F.I of IV.3-Alexa 647) on monocytes, whole blood, 2 h at 37 °C [1]: 0.0809 nM
- IC50 of the loss of surface FcγRIIA (M.F.I of IV.3-Alexa 647) on monocytes, whole blood, 2 h at 37 °C [2]: 0.0593 nM
- IC50 of the loss of surface FcγRIIA (M.F.I of IV.3-Alexa 647) on cynomolgus monocytes, whole blood, 2 h at 37 °C [3]: 1.09 nM
- binding result [4]: no binding (tested: about 15000 ng/ml)
- EC50 [5]: 3.34 nM
- Kd [6]: 0.15 nM
- koff [6]: 0.000735 s⁻¹
- kon [6]: 4.98e+06 M⁻¹ s⁻¹
B1: 32LO0352 (MEDI9600) (antibody, human IgG1, V domains shown)
VH: QVQLVQSGAEVKKPGASVKVSCKASGYTFTNYGMNWVRQAPGQRLEWMGWLNTYTGESWYPDDFKGRVTITRDTSASTAYMELSSLRSEDTAVYYCARGDYGYDDPLDYWGQGTLVTVSS
VL: DIVMTQSPLSLPVTPGEPASISCRSSKSLLHTNQNTYLHWFLQKPGQSPQLLIYRMSVLASGVPDRFSGSGSGTDFTLKISRVEAEDVGVYYCMQHLEYPLTFGQGTKLEIK
notes: Fluorescently labelled in the neutrophil flow cytometry assay and Alexa 647 labelled for confocal microscopy; also called clone 32LO0352; CD32LO0352

— patent US20260125478A1 (VIELA BIO, published 2026)
